The target in one test is T1, HGF-His tag (UniProt P14210 32-728).
T1 construct: Bought antigen coated on the ELISA plate; not shown: His tag
Description: direct bind ELISA (C-term VD). (An ELISA detects its analyte on a solid surface through an enzyme-linked reagent.)

Another test has as its target T2, VEGF 1-165 aa (UniProt P15692 27-191).
T2 construct: Bought antigen coated on the ELISA plate
Description: direct bind ELISA (N-term VD).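 Further: ELISA screen of antibodies for binding to plate-immobilized target antigen.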

Test [1] deals with VEGF (VEGF 1-165 aa, R&D Systems 293-VE-010) (UniProt P15692 27-191). In words: Direct bind ELISA, VEGF coated on plate.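 Further: ELISA screening of antibodies for binding to the plate-coated target antigen.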
Sequence of VEGF (VEGF 1-165 aa, R&D Systems 293-VE-010) (P15692 other isoform, or with tags, fused parts or gaps limits assumed): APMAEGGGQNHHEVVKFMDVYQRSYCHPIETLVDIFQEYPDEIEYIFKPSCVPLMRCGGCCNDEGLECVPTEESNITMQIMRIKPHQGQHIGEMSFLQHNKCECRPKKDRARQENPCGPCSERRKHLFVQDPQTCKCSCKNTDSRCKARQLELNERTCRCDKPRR

T1 sequence (P14210 32-728 limits assumed): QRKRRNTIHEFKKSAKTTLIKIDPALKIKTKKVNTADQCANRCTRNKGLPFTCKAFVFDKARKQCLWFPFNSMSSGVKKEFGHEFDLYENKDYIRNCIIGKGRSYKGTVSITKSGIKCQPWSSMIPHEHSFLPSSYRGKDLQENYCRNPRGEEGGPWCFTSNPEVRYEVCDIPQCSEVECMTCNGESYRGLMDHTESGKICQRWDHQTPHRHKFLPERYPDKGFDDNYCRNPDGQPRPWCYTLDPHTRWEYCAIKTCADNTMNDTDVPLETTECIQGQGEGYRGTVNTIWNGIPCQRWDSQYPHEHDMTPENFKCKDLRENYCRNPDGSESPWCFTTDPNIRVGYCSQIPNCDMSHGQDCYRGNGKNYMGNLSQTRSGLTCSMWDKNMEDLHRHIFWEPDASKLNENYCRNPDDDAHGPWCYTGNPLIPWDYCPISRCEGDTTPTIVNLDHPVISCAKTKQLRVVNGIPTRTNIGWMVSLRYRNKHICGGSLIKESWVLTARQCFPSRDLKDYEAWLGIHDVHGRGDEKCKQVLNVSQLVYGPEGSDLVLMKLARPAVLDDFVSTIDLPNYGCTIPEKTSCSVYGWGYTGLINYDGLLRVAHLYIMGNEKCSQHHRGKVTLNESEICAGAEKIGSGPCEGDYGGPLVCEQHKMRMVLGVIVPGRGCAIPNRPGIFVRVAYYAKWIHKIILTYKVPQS
T2 sequence (P15692 other isoform, or with tags, fused parts or gaps limits assumed): as the sequence (P15692 other isoform, or with tags, fused parts or gaps limits assumed) above

B1: DVD644 (bispecific antibody, human IgG1, kappa)
heavy: not shown
light: DIQMTQSPSSLSASVGDRVTITCRASQDVSTAVAWYQQKPGKAPKLLIYSASFLYSGVPSRFSGSGSGTDFTLTISSLQPEDFATYYCQQSYTTPPTFGQGTKVEIKRTVAAPSVFIFPPDIQMTQSPSSVSASVGDRVTITCRASQGISSWLAWYQQKPGKAPNLLIYEASSLQSGVPSRFGGSGSGTDFTLTISSLQPEDFATYYCQQANGFPWTFGQGTKVEIKRTVAAPSVFIFPPSDEQLKSGTASVVCLLNNFYPREAKVQWKVDNALQSGNSQESVTEQDSKDSTYSLSSTLTLSKADYEKHKVYACEVTHQGLSSPVTKSFNRGEC
notes: DVD-Ig; HC linker long, LC linker long; vectors V1/V2
As for B1, the results for the EC50 in the test with HGF-His tag and with VEGF 1-165 aa were 0.29 nM and 5.31 nM, respectively.

B2: DVD646 (bispecific antibody, human IgG1, kappa)
heavy: not shown
light: DIQMTQSPSSLSASVGDRVTITCRASQVIRRSLAWYQQKPGKAPKLLIYAASNLASGVPSRFSGSGSGTDFTLTISSLQPEDFATYYCQQSNTSPLTFGQGTKVEIKRTVAAPSVFIFPPDIQMTQSPSSVSASVGDRVTITCRASQGISSWLAWYQQKPGKAPNLLIYEASSLQSGVPSRFGGSGSGTDFTLTISSLQPEDFATYYCQQANGFPWTFGQGTKVEIKRTVAAPSVFIFPPSDEQLKSGTASVVCLLNNFYPREAKVQWKVDNALQSGNSQESVTEQDSKDSTYSLSSTLTLSKADYEKHKVYACEVTHQGLSSPVTKSFNRGEC
notes: DVD-Ig; N-term VD AB071 (VEGF), C-term VD AB012 (HGF); HC linker long, LC linker long; vectors V1/V2
On to B2, for which the concentration for a half-maximal effect (EC50) (as a rule, the concentration needed to bring the measured effect to its halfway point) with HGF-His tag is 0.49 nM; in the test with VEGF 1-165 aa, 30.7 nM.

B3: DVD521 (bispecific antibody, IgG1)
VH: EVQLQQSGPELEKPGASVKISCKASGYSFTGYNMNWVKQSNGKSLEWIGNIDPYFGGTNYNQKFKGKATLTVDKSSSTAYMQLKSLTSEDSAVYYCARNYDYDGGCFDYWGQGTTLTVSSASTKGPSVFPLAPEVQLVESGGGLVQPGGSLRLSCAASGFTINASWIHWVRQAPGKGLEWVGAIYPYSGYTNYADSVKGRFTISADTSKNTAYLQMNSLRAEDTAVYYCARWGHSTSPWAMDYWGQGTLVTVSS
VL: QAVVTQESALTTSPGETVTLTCRSSTGAVTTSNYANWVQEKPDHLFTGLIGGTNNRAPGVPARFSGSLIGDKAALTITGAQTEDEAIYFCALWYSNHWVFGGGTKLTVLGQPKAAPSVTLFPPDIQMTQSPSSLSASVGDRVTITCRASQVIRRSLAWYQQKPGKAPKLLIYAASNLASGVPSRFSGSGSGTDFTLTISSLQPEDFATYYCQQSNTSPLTFGQGTKVEIKR
notes: DVD-Ig, outer AB073 / inner AB071; HC linker long, LC linker long; also called DVD521H; DVD521L
For B3, the EC50 in test [1] came to 655 nM.

B4: DVD648 (bispecific antibody, human IgG1, kappa)
heavy: not shown
light: DIQMTQSPSSLSASVGDRVTITCSASQDISNYLNWYQQKPGKAPKVLIYFTSSLHSGVPSRFSGSGSGTDFTLTISSLQPEDFATYYCQQYSTVPWTFGQGTKVEIKRTVAAPDIQMTQSPSSVSASVGDRVTITCRASQGISSWLAWYQQKPGKAPNLLIYEASSLQSGVPSRFGGSGSGTDFTLTISSLQPEDFATYYCQQANGFPWTFGQGTKVEIKRTVAAPSVFIFPPSDEQLKSGTASVVCLLNNFYPREAKVQWKVDNALQSGNSQESVTEQDSKDSTYSLSSTLTLSKADYEKHKVYACEVTHQGLSSPVTKSFNRGEC
notes: DVD-Ig; HC linker long, LC linker short; vectors V1/V2
As for B4, the EC50 with HGF-His tag worked out at 4.17 nM; in the test with VEGF 1-165 aa, 1.72 nM.

B5: DVD516 (bispecific antibody, IgG1)
VH: EVQLVESGGGLVQPGGSLRLSCAASGFTINASWIHWVRQAPGKGLEWVGAIYPYSGYTNYADSVKGRFTISADTSKNTAYLQMNSLRAEDTAVYYCARWGHSTSPWAMDYWGQGTLVTVSSASTKGPEVQLQQSGPELEKPGASVKISCKASGYSFTGYNMNWVKQSNGKSLEWIGNIDPYFGGTNYNQKFKGKATLTVDKSSSTAYMQLKSLTSEDSAVYYCARNYDYDGGCFDYWGQGTTLTVSS
VL: DIQMTQSPSSLSASVGDRVTITCRASQVIRRSLAWYQQKPGKAPKLLIYAASNLASGVPSRFSGSGSGTDFTLTISSLQPEDFATYYCQQSNTSPLTFGQGTKVEIKRTVAAPQAVVTQESALTTSPGETVTLTCRSSTGAVTTSNYANWVQEKPDHLFTGLIGGTNNRAPGVPARFSGSLIGDKAALTITGAQTEDEAIYFCALWYSNHWVFGGGTKLTVLG
notes: DVD-Ig, outer AB071 / inner AB073; HC linker short, LC linker short; also called DVD516H; DVD516L
In test [1], B5 gave an EC50 of 24.6 nM.

B6: DVD534 (bispecific antibody, IgG1)
VH: B5 VH
VL: DIQMTQSPSSLSASVGDRVTITCRASQVIRRSLAWYQQKPGKAPKLLIYAASNLASGVPSRFSGSGSGTDFTLTISSLQPEDFATYYCQQSNTSPLTFGQGTKVEIKRTVAAPSVFIFPPQAVVTQESALTTSPGETVTLTCRSSTGAVTTSNYANWVQEKPDHLFTGLIGGTNNRAPGVPARFSGSLIGDKAALTITGAQTEDEAIYFCALWYSNHWVFGGGTKLTVLG
notes: DVD-Ig, outer AB071 / inner AB073; HC linker short, LC linker long; also called DVD534H; DVD534L
Molecule B6 displayed an EC50 in test [1] of 23.6 nM. The EC50 values of the last two molecules are within 1.5-fold of each other.

B7: DVD528 (bispecific antibody, IgG1)
VH: EVQLVESGGGLVQPGGSLRLSCAASGFTINASWIHWVRQAPGKGLEWVGAIYPYSGYTNYADSVKGRFTISADTSKNTAYLQMNSLRAEDTAVYYCARWGHSTSPWAMDYWGQGTLVTVSSASTKGPSVFPLAPEVQLQQSGPELEKPGASVKISCKASGYSFTGYNMNWVKQSNGKSLEWIGNIDPYFGGTNYNQKFKGKATLTVDKSSSTAYMQLKSLTSEDSAVYYCARNYDYDGGCFDYWGQGTTLTVSS
VL: B5 VL
notes: DVD-Ig, outer AB071 / inner AB073; HC linker long, LC linker short; also called DVD528H; DVD528L
In turn, B7 showed an EC50 in test [1] of 27.7 nM. The EC50 values of the last two molecules are within 1.5-fold of each other.

B8: DVD642 (bispecific antibody, human IgG1, kappa)
heavy: not shown
light: DIQMTQSPSSLSASVGDRVTITCSASQDISNYLNWYQQKPGKAPKVLIYFTSSLHSGVPSRFSGSGSGTDFTLTISSLQPEDFATYYCQQYSTVPWTFGQGTKVEIKRTVAAPSVFIFPPDIQMTQSPSSVSASVGDRVTITCRASQGISSWLAWYQQKPGKAPNLLIYEASSLQSGVPSRFGGSGSGTDFTLTISSLQPEDFATYYCQQANGFPWTFGQGTKVEIKRTVAAPSVFIFPPSDEQLKSGTASVVCLLNNFYPREAKVQWKVDNALQSGNSQESVTEQDSKDSTYSLSSTLTLSKADYEKHKVYACEVTHQGLSSPVTKSFNRGEC
notes: as for B1
With B8, the concentration for a half-maximal effect (EC50) in the test with HGF-His tag turned out to be 0.87 nM; in the test with VEGF 1-165 aa, 6.35 nM.

B9: DVD524 (bispecific antibody, IgG1)
VH: EVQLVESGGGLVQPGGSLRLSCAASGYTFTNYGMNWVRQAPGKGLEWVGWINTYTGEPTYAADFKRRFTFSLDTSKSTAYLQMNSLRAEDTAVYYCAKYPHYYGSSHWYFDVWGQGTLVTVSSASTKGPSVFPLAPEVQLQQSGPELEKPGASVKISCKASGYSFTGYNMNWVKQSNGKSLEWIGNIDPYFGGTNYNQKFKGKATLTVDKSSSTAYMQLKSLTSEDSAVYYCARNYDYDGGCFDYWGQGTTLTVSS
VL: DIQMTQSPSSLSASVGDRVTITCSASQDISNYLNWYQQKPGKAPKVLIYFTSSLHSGVPSRFSGSGSGTDFTLTISSLQPEDFATYYCQQYSTVPWTFGQGTKVEIKRTVAAPQAVVTQESALTTSPGETVTLTCRSSTGAVTTSNYANWVQEKPDHLFTGLIGGTNNRAPGVPARFSGSLIGDKAALTITGAQTEDEAIYFCALWYSNHWVFGGGTKLTVLG
notes: HC linker long, LC linker short; also called DVD524H; DVD524L
On to B9, for which, in test [1], the EC50 is 0.3 nM.

B10: DVD515 (bispecific antibody, IgG1)
VH: EVQLQQSGPELEKPGASVKISCKASGYSFTGYNMNWVKQSNGKSLEWIGNIDPYFGGTNYNQKFKGKATLTVDKSSSTAYMQLKSLTSEDSAVYYCARNYDYDGGCFDYWGQGTTLTVSSASTKGPEVQLVESGGGLVQPGGSLRLSCAASGFTINASWIHWVRQAPGKGLEWVGAIYPYSGYTNYADSVKGRFTISADTSKNTAYLQMNSLRAEDTAVYYCARWGHSTSPWAMDYWGQGTLVTVSS
VL: QAVVTQESALTTSPGETVTLTCRSSTGAVTTSNYANWVQEKPDHLFTGLIGGTNNRAPGVPARFSGSLIGDKAALTITGAQTEDEAIYFCALWYSNHWVFGGGTKLTVLGQPKAAPDIQMTQSPSSLSASVGDRVTITCRASQVIRRSLAWYQQKPGKAPKLLIYAASNLASGVPSRFSGSGSGTDFTLTISSLQPEDFATYYCQQSNTSPLTFGQGTKVEIKR
notes: DVD-Ig, outer AB073 / inner AB071; HC linker short, LC linker short; also called DVD515H; DVD515L
Take B10: the EC50 in test [1] was found to be 3020 nM.

B11: DVD527 (bispecific antibody, IgG1)
VH: B3 VH
VL: B10 VL
notes: DVD-Ig, outer AB073 / inner AB071; HC linker long, LC linker short; also called DVD527H; DVD527L
B11 gave a half-maximal effective concentration (EC50) in test [1] of 2380 nM.

B12: DVD522 (bispecific antibody, IgG1)
VH: B7 VH
VL: B6 VL
notes: DVD-Ig, outer AB071 / inner AB073; HC linker long, LC linker long; also called DVD522H; DVD522L
Take B12: in test [1], it took 23.5 nM to reach a half-maximal effect (EC50).

For the origin of these results see US20100260668A1 (published 2010).
